Changes are numbered by the printed parent chain.

We go through 16 proteins from US20250027068.

The labels stand for the following.
B1: PRT-574 (protein)
chain: MANQEIRYSEETPKTITSVWTKGVTPPTDFIYNEDVLHAPYIANQGWYDITKTFNGKDDLLCGAATAGNMLHWWFDQNKEQIERYLKKHPEKQKINFNGEQMFDVKEAIDTKDSQTNSKLFEYFKDKAFPYLSTKHLGVFPDHVIDMFINGYRLSLTNHGPTPVKEQTKDPRGGIFDAVFTRGDQSKLLTSRHDFKEKTLNEISDLIKQELTEGKALGLSHTYANVRINHVINLWGADFDAEGNLEAIYVTDSDSNASIGMKKYYVGVNSAGKVAISAKEIEGDNIGAQVLGLFTLSTGKDIWEQTNLEHHHHHH
B2: PRT-584 (protein)
chain: B1 chain with D29N, E166R, D240N, K300Q
B3: PRT-581 (protein)
chain: B1 chain with E10K, E11A, T28E, D29N, I42L, K88E
B4: PRT-561 (protein)
chain: B1 chain with K14S, D29Q, L37F, R84N, N117D, E122N, E166R, K300Q, E304Q
B5: PRT-588 (protein)
chain: MRNQTTTYSEVTPSHITSVWTKGVTPPEQFIQGEDVFHAPYIANQGWYDITKTFNGKDDLLCGAATAGNMLHWWFDQNKEQIENYLKKHPEKQKIMFNNEEMFDLREAINTKDSQTDSALFSYFKDKAFPNLSARRLGVMPDHVLDMFINGYYLNVGNTDKTDVNRGTKDLRGGIFDAVFTRGDQSKLLTARHDLKNKTLKEISDLIKQELTEGKALALSHTYANVRINHVINLWGADFDAEGNLEAIYVTDSDSNASIGMKKYYVGVNSAGKVAISAKKIEGDNIGAQVLGLFTLSTGQDIWQQTNLEHHHHHH
B6: PRT-272 (protein)
chain: MVTSVWTKGVTPPTDFIYGEDVLHAPYKAGQGWYDITKLFNGKDDLLCGAATAGNMLHWWFDQNKEQIENYLKKHPEKQKINFNGEQMFDVKEAIDTKDSQLDSKLFEYFLEKAFPYLSTKHLGVFPDHVIDMFINGYRLSLTNHGPTPVKRGSKDPRGGIFDAVFTRGDQSKLLTNRHDLKNKTLKEISDLIKQELTEGKALGISHTYANVRINHVINLWGADFDAEGNLEAIAVTDSDSNASIGMKKYFVGVNSSGKVAISAKEIEEDNIGAQVLGLFTLSTGQDIWNQTN
B7: PRT-528 (protein)
chain: MANQEIRYSEETPKTITSVWTKGVTPPTDFIQNEDVLHAPYIANQGWYDITKTFNGKDDLLCGAATAGNMLHWWFDQNKEEIENYLKKHPEKQKINFNGEQMFDVKEAIDTKDSQTDSALFEYFKDKAFPNLSTKHLGVMPDLVLDMFINGYYLSLGKHGPTPVKRGTKDPRGGIFDAVFTRGDQSKLLTARHDFKEKTLNEISDLIKQELTEGKALALSHTYANVRINHVINLWGADFNSEGNLEAIYVTDSDSNASIGMKKYYVGVNAAGKVAISAKEIEGDNIGAQVLGLFTLSTGQDIWEQTNLEHHHHHH
B8: PRT-547 (protein)
chain: B7 chain with N131Y, M140F, L143H, L145I, Y153R, G157T, K158N, A218G
B9: PRT-527 (protein)
chain: B7 chain with Q32K, A191S, A270S
B10: PRT-248 (protein)
chain: MVTSVWTKGVTPPTNFTYGEDVLHAPYVANQGWYDITKTFNGKDDLLCGAATAGNMLHWWFDQNKEQIENYLKKHPEKQKINFNGEQMFDVKEAIDTKDSQLDSKLFEYFKEKAFPNLSTKHLGVFPDHVIDMFINGYRLSLLNHGPTPVKRGSKDPRGGIFDAVFTRGDQSKLLTNRHDFKEKTLKEISDLIKQELTEGKALGISHTYANVRINHVINLWGADFDAEGNLEAIYVTDSDSNASIGMKKYFVGVNSSGKVAISAKEIEEDNIGAQVLGLFTLSTGQDIWNQTN
B11: PRT-256 (protein)
chain: B10 chain with T39L, K111L, R213G, Y235A
B12: PRT-264 (protein)
chain: B10 chain with T39L, D45N, M88L, E108D, N117Y, L143T, P157K, D170V, S241T, A243P
B13: PRT-542 (protein)
chain: MANQEIRYSKNENPNVTIKWVHGIGEPTQAEKEKIEFWWYETTTTKFFNNRKVDHLGDGNQCWAKTDSNMLHWWFVQNEENINQYIEKKNITGKINFNGEQMFDVKEGIDDNQEPEKSYIANTFRTKKAHNLSTKHKGDYIINGLSWYLYGLNNFKNAHGPTPVKKKPKFYGPALFKDVFNRGDGNTPIIVETDFKEYTKKEFEDTLSAALDSKKAVGINIYGSNVDYQHAITLWGAAFDEEENIIAIYVVDNNFKFENRIFPYGIWYQKEGRPYLFNYEINSFVKNRYVGEITTLDKGEAQWQETNLEHHHHHH
B14: PRT-599 (protein)
chain: MANQEIRYSEETPSTITSVWTKGVTPPTDFIQNEDVLHAPYIANQGWYDITKTFNGKDDLLCGAATAGNMLHWWFDQNKEQIENYLKKHPEKQKINFNGEQMFDVKEAIDTKDSQTDSALFEYFKDKAFPYLSTKHLGVFPDHVIDMFINGYRLSLTNHGPTPVKRGTKDPRGGIFDAVFTRGDQSKLLTSRHDFKEKTLNEISDLIKQELTEGKALGLSHTYANVRINHVINLWGADFNAEGNLEAIYVTDSDSNASIGMKKYYVGVNSAGKVAISAKEIKGDNIGAQVLGLFTLSTGQDIWNQTNLEHHHHHH
B15: PRT-600 (protein)
chain: B14 chain with K282E, I302S
B16: PRT-590 (protein)
chain: B14 chain with I16V, K282E

This data set concerns the target pooled human IgG (human IgG1, 2, 3 and 4).
As for B1, the Enzyme Activity Endpoint Assay: Fab′2 worked out at 660 ng/µL, the Enzyme Activity Endpoint Assay: Fc was 357 ng/µL, the Enzyme Activity Endpoint Assay: IgG worked out at 0 ng/µL and the Enzyme Activity Endpoint Assay: scIgG came to 227 ng/µL.

On to B2, for which the Enzyme Activity Endpoint Assay: Fab′2 worked out at 552 ng/µL, the Enzyme Activity Endpoint Assay: Fc was found to be 369 ng/µL, the Enzyme Activity Endpoint Assay: IgG stood at 51 ng/µL and the Enzyme Activity Endpoint Assay: scIgG was 285 ng/µL.

Protein B3 had an Enzyme Activity Endpoint Assay: Fab′2 of 660 ng/µL, an Enzyme Activity Endpoint Assay: Fc of 365 ng/µL, an Enzyme Activity Endpoint Assay: IgG of 0 ng/µL and an Enzyme Activity Endpoint Assay: scIgG of 0 ng/µL.

As to B4, the Enzyme Activity Endpoint Assay: Fab′2 is 606 ng/µL, the Enzyme Activity Endpoint Assay: Fc was determined as 405 ng/µL, the Enzyme Activity Endpoint Assay: IgG was found to be 0 ng/µL and the Enzyme Activity Endpoint Assay: scIgG amounted to 0 ng/µL.

Consider B5, for which the Enzyme Activity Endpoint Assay: Fab′2 came out at 658 ng/µL, the Enzyme Activity Endpoint Assay: Fc came out at 361 ng/µL, the Enzyme Activity Endpoint Assay: IgG was 0 ng/µL and the Enzyme Activity Endpoint Assay: scIgG is 0 ng/µL.

B6 yielded an Enzyme Activity Endpoint Assay: Fab′2 of 721 ng/µL, an Enzyme Activity Endpoint Assay: Fc of 389 ng/µL, an Enzyme Activity Endpoint Assay: IgG of 0 ng/µL and an Enzyme Activity Endpoint Assay: scIgG of 0 ng/µL.

As to B7, the Enzyme Activity Endpoint Assay: Fab′2 came to 14 ng/µL, the Enzyme Activity Endpoint Assay: Fc worked out at 114 ng/µL, the Enzyme Activity Endpoint Assay: IgG turned out to be 354 ng/µL and the Enzyme Activity Endpoint Assay: scIgG turned out to be 691 ng/µL.

For B8, the Enzyme Activity Endpoint Assay: Fab′2 amounted to 527 ng/µL, the Enzyme Activity Endpoint Assay: Fc is 359 ng/µL, the Enzyme Activity Endpoint Assay: IgG was found to be 0 ng/µL and the Enzyme Activity Endpoint Assay: scIgG is 256 ng/µL.

As to B9, the Enzyme Activity Endpoint Assay: Fab′2 is 0 ng/µL, the Enzyme Activity Endpoint Assay: Fc stood at 142 ng/µL, the Enzyme Activity Endpoint Assay: IgG came out at 707 ng/µL and the Enzyme Activity Endpoint Assay: scIgG worked out at 396 ng/µL.

In the case of B10, the Enzyme Activity Endpoint Assay: Fab′2 worked out at 654 ng/µL, the Enzyme Activity Endpoint Assay: Fc came out at 370 ng/µL, the Enzyme Activity Endpoint Assay: IgG turned out to be 0 ng/µL and the Enzyme Activity Endpoint Assay: scIgG was found to be 0 ng/µL.

B11 came in with an Enzyme Activity Endpoint Assay: Fab′2 of 610 ng/µL, an Enzyme Activity Endpoint Assay: Fc of 376 ng/µL, an Enzyme Activity Endpoint Assay: IgG of 55 ng/µL and an Enzyme Activity Endpoint Assay: scIgG of 0 ng/µL.

Turning to B12, the Enzyme Activity Endpoint Assay: Fab′2 stood at 606 ng/µL, the Enzyme Activity Endpoint Assay: Fc was determined as 353 ng/µL, the Enzyme Activity Endpoint Assay: IgG came out at 97 ng/µL and the Enzyme Activity Endpoint Assay: scIgG is 0 ng/µL.

In the case of B13, the Enzyme Activity Endpoint Assay: Fab′2 stood at 0 ng/µL, the Enzyme Activity Endpoint Assay: Fc came to 0 ng/µL, the Enzyme Activity Endpoint Assay: IgG amounted to 1470 ng/µL and the Enzyme Activity Endpoint Assay: scIgG was 0 ng/µL.

B14 had an Enzyme Activity Endpoint Assay: Fab′2 of 930 ng/µL, an Enzyme Activity Endpoint Assay: Fc of 310 ng/µL, an Enzyme Activity Endpoint Assay: IgG of 0 ng/µL and an Enzyme Activity Endpoint Assay: scIgG of 0 ng/µL.

On to B15, for which the Enzyme Activity Endpoint Assay: Fab′2 is 992 ng/µL, the Enzyme Activity Endpoint Assay: Fc is 441 ng/µL, the Enzyme Activity Endpoint Assay: IgG came to 0 ng/µL and the Enzyme Activity Endpoint Assay: scIgG came to 0 ng/µL.

In turn, B16 showed an Enzyme Activity Endpoint Assay: Fab′2 of 954 ng/µL, an Enzyme Activity Endpoint Assay: Fc of 217 ng/µL, an Enzyme Activity Endpoint Assay: IgG of 0 ng/µL and an Enzyme Activity Endpoint Assay: scIgG of 0 ng/µL.
